Experiments:
HLA-B*35:01 = assay: IEDB peptide-MHC binding, purified MHC/competitive/radioactivity; filed as Kd, often an IC50 or EC50 that approximates it; ≥ and ≤ were set here for values at or beyond the usual limits of such assays
HLA-B*40:02 = assay: as above
HLA-B*44:03 = assay: as above
HLA-B*18:01 = assay: as above
HLA-B*40:01 = assay: as above
HLA-B*44:02 = assay: as above
HLA-B*45:01 = assay: as above
HLA-B*51:01 = assay: as above
HLA-B*15:01 = assay: as above; conditions: source organism: Dengue virus 2 Jamaica/1409/1983
HLA-B*57:01 = assay: IEDB peptide-MHC binding, purified MHC/direct/fluorescence; filed as Kd, often an IC50 or EC50 that approximates it; ≥ and ≤ were set here for values at or beyond the usual limits of such assays; conditions: source organism: Entamoeba histolytica HM-1:IMSS
HLA-B*58:01 = assay: as above; conditions: source organism: Entamoeba histolytica HM-1:IMSS
HLA-A*24:03 = assay: as above; conditions: source organism: Escherichia coli O157:H7
HLA-A*30:02 = assay: IEDB peptide-MHC binding, purified MHC/competitive/radioactivity; filed as Kd, often an IC50 or EC50 that approximates it; ≥ and ≤ were set here for values at or beyond the usual limits of such assays; conditions: source organism: Dengue virus 1 Brazil/97-11/1997
[1] = source organism: SARS coronavirus Tor2
[2] = source organism: Dengue virus 2 Jamaica/1409/1983
[3] = source organism: Mammarenavirus machupoense
[4] = source organism: Mammarenavirus whitewaterense
[5] = source organism: Dengue virus 4 Philippines/H241/1956
[6] = source organism: Mammarenavirus tacaribeense
[7] = source organism: Mammarenavirus lassaense
[8] = source organism: Mammarenavirus juninense
[9] = source organism: Mammarenavirus brazilense

TPPGTADAF showed a Kd (HLA-B*35:01; source organism: Dengue virus 3 Martinique/1243/1999) of 0.278 µM.
With IEELFYSYAT the Kd (HLA-B*40:02; [1]) was 0.0519 µM, the Kd (HLA-B*44:03; [1]) was 0.205 µM and the Kd (HLA-B*18:01; [1]) was 0.786 µM. For the same sequence, the Kd (HLA-B*40:01; [1]) was 1.52 µM, the Kd (HLA-B*44:02; [1]) was 0.326 µM and the Kd (HLA-B*45:01; [1]) was 0.0106 µM.
For DPFPQSNAPI, the Kd (HLA-B*51:01; [2]) was 0.69 µM.
LPLPWLPGA gave a Kd (HLA-B*51:01; [2]) of 0.651 µM.
In the case of EELSLMYETL, the Kd (HLA-B*40:02; [3]) is reported as 0.11 µM, the Kd (HLA-B*44:03; [3]) is reported as 1.32 µM and the Kd (HLA-B*18:01; [3]) is reported as 2.46 µM. For the same sequence, the Kd (HLA-B*40:01; [3]) was 10.4 µM, the Kd (HLA-B*44:02; [3]) was 1.54 µM and the Kd (HLA-B*45:01; [3]) was 0.952 µM.
With SAFFGMSRIG the Kd (HLA-B*40:02; [1]) was no less than 70.8 µM, the Kd (HLA-B*44:03; [1]) was 8.77 µM and the Kd (HLA-B*18:01; [1]) was no less than 70.5 µM. The Kd (HLA-B*40:01; [1]) was no less than 44.9 µM, the Kd (HLA-B*44:02; [1]) was 18.4 µM and the Kd (HLA-B*45:01; [1]) was no less than 26.4 µM.
With LMCHATFTM the Kd (HLA-B*35:01; [2]) was 1.6 µM and the Kd (HLA-B*15:01) was 0.00945 µM.
For VDYGVRFFFY, the Kd (HLA-B*40:02; [1]) was no less than 30.4 µM, the Kd (HLA-B*44:03; [1]) was 0.789 µM and the Kd (HLA-B*18:01; [1]) was no less than 38.1 µM. For the same sequence, the Kd (HLA-B*40:01; [1]) was 16.8 µM, the Kd (HLA-B*44:02; [1]) was 0.823 µM and the Kd (HLA-B*45:01; [1]) was 0.451 µM.
SDSVCACGL gave a Kd (HLA-B*40:02; [4]) of 3.88 µM, a Kd (HLA-B*44:03; [4]) of 2.83 µM and a Kd (HLA-B*18:01; [4]) of no less than 77.5 µM. The Kd (HLA-B*40:01; [4]) was no less than 44 µM, the Kd (HLA-B*44:02; [4]) was 3.09 µM and the Kd (HLA-B*45:01; [4]) was 10.6 µM.
In the case of SEEVVENPTI, the Kd (HLA-B*40:02; [1]) is reported as 0.402 µM, the Kd (HLA-B*44:03; [1]) is reported as 1.04 µM and the Kd (HLA-B*18:01; [1]) is reported as no less than 48.7 µM. For the same sequence, the Kd (HLA-B*40:01; [1]) was 1.05 µM, the Kd (HLA-B*44:02; [1]) was 0.471 µM and the Kd (HLA-B*45:01; [1]) was 0.277 µM.
Sequence QELGKYEQYI has a Kd (HLA-B*40:02; [1]) of 0.507 µM, a Kd (HLA-B*44:03; [1]) of 0.187 µM and a Kd (HLA-B*18:01; [1]) of no less than 70.5 µM. It also gave a Kd (HLA-B*40:01; [1]) of 13 µM, a Kd (HLA-B*44:02; [1]) of 0.207 µM and a Kd (HLA-B*45:01; [1]) of no less than 20.6 µM.
With GEILLLEWL the Kd (HLA-B*40:02; [1]) was 19.5 µM, the Kd (HLA-B*44:03; [1]) was 0.00151 µM and the Kd (HLA-B*18:01; [1]) was 4.96 µM. It also gave a Kd (HLA-B*40:01; [1]) of 0.000363 µM, a Kd (HLA-B*44:02; [1]) of 0.00944 µM and a Kd (HLA-B*45:01; [1]) of 0.843 µM.
With SSTDQQEWM the Kd (HLA-B*57:01) was no less than 20 µM and the Kd (HLA-B*58:01) was 3.87 µM.
In the case of RTLNELWFL, the Kd (HLA-A*24:03) is reported as 0.0035 µM.
LAFITFLRV was tested, and the Kd (HLA-B*51:01; [5]) was 4.24 µM.
In the case of EEVPTLIKTL, the Kd (HLA-B*40:02; [6]) is reported as 6.32 µM, the Kd (HLA-B*44:03; [6]) is reported as 3.32 µM and the Kd (HLA-B*18:01; [6]) is reported as no less than 70.4 µM. The Kd (HLA-B*40:01; [6]) was 7.52 µM, the Kd (HLA-B*44:02; [6]) was 8.59 µM and the Kd (HLA-B*45:01; [6]) was 3.02 µM.
Work on DEILLDGGAS yielded a Kd (HLA-B*40:02; [7]) of 0.902 µM, a Kd (HLA-B*44:03; [7]) of no less than 25.9 µM and a Kd (HLA-B*18:01; [7]) of 0.07 µM. For the same sequence, the Kd (HLA-B*40:01; [7]) was no less than 42.9 µM, the Kd (HLA-B*44:02; [7]) was no less than 10 µM and the Kd (HLA-B*45:01; [7]) was 5.95 µM.
YGGPISQHNY was tested, and the Kd (HLA-A*30:02) was 0.192 µM and the Kd (HLA-B*35:01; source organism: Dengue virus 1 Brazil/97-11/1997) was 0.406 µM.
With LDLVLLNLL the Kd (HLA-B*40:02; [8]) was 0.0485 µM, the Kd (HLA-B*44:03; [8]) was no less than 45.4 µM and the Kd (HLA-B*18:01; [8]) was no less than 43.6 µM. For the same sequence, the Kd (HLA-B*40:01; [8]) was 18.7 µM, the Kd (HLA-B*44:02; [8]) was no less than 77.9 µM and the Kd (HLA-B*45:01; [8]) was 12.5 µM.
LPDYGELTLD showed a Kd (HLA-B*35:01; [5]) of 9.96 µM.
Work on IDPLIVSTS yielded a Kd (HLA-B*40:02; [9]) of 4.61 µM, a Kd (HLA-B*44:03; [9]) of 18.3 µM and a Kd (HLA-B*18:01; [9]) of no less than 77.5 µM. It also gave a Kd (HLA-B*40:01; [9]) of no less than 48.4 µM, a Kd (HLA-B*44:02; [9]) of no less than 77.9 µM and a Kd (HLA-B*45:01; [9]) of 18.9 µM.
Sequence KEFTRPLISG has a Kd (HLA-B*40:02; [1]) of 19.5 µM, a Kd (HLA-B*18:01; [1]) of no less than 70.5 µM and a Kd (HLA-B*40:01; [1]) of 1.6 µM. For the same sequence, the Kd (HLA-B*44:02; [1]) was 10.1 µM and the Kd (HLA-B*45:01; [1]) was 2.64 µM.

Source: the Immune Epitope Database (IEDB)
